Values belong to the binder of their own block, whether it stands above or below them.
Key:
[1] = biological target: T1, FcγRIIa H (FcγRIIa type H, His at position 131), extracellular domain with C-terminal His tag (human, UniProt P12318 34-217); test: SPR Biacore, relative binding, GpH7-B3/GpL16-k0 (HoCon Ab)=100
T1 construct: extracellular domain; also called FcgRIIa H; 2aH
T1 sequence (looked up): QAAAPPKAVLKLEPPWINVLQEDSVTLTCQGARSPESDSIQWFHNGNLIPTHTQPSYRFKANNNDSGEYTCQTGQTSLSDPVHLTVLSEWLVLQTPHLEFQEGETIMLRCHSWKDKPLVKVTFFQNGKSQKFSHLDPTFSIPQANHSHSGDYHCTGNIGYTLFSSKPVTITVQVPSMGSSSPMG
Method: Analysis of interaction between objective antibody and the FcγR was carried out using Biacore T100 (GE Healthcare). HBS-EP+ (GE Healthcare) was used as the running buffer, and the measurement temperature was set to 25° C. Chips produced by immobilizing the antigen peptide by the amine coupling method to a Series S Sencor Chip CM5 (GE Healthcare), or alternatively, chips produced by allowing preliminarily biotinylated antigen peptides to interact with and immobilize onto a Series S Sensor Chip SA (certified) (GE Healthcare) were used. Antibodies of interest were captured onto an antigen peptide-immobilized chip, and allowed to interact to each FcγR diluted with running buffer. To regenerate and repeatedly use the chip, the antibodies captured on the chip were washed off by reacting 10 mM glycine-HCl, pH 1.5.

FcγRIIb [2] = biological target: T2, FcγRIIb (human, UniProt P31994 43-217); test: SPR (Biacore), antibody captured, FcγR analyte; binding relative to GpH7-A5/GpH7-B3/GpL16-k0 = 100
T2 construct: extracellular domain; also called FcgRIIb; 2b
T2 sequence (looked up): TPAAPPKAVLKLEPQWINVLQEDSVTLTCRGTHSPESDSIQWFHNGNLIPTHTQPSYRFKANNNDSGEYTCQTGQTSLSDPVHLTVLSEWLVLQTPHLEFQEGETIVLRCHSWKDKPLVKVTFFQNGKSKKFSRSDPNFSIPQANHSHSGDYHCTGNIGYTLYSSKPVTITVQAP

FcγRIIa H = biological target: T3, FcγRIIa H (human, UniProt P12318 34-217); test: as above
T3 construct: extracellular domain; also called FcgRIIa H; FcγRIIa type H
T3 sequence (looked up): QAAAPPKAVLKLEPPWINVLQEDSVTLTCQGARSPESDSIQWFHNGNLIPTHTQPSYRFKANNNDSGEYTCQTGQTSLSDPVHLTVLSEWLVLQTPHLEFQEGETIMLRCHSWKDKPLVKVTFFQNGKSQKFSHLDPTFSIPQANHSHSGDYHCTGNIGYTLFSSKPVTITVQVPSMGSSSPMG

FcγRIIa R = biological target: T4, FcγRIIa R (human, UniProt P12318 34-217); test: SPR, relative to GpH7-A5/GpH7-B3/GpL16-k0
T4 construct: extracellular domain; also called FcgRIIa R type; 2aR; not shown: His tag at the C terminus
T4 sequence (looked up): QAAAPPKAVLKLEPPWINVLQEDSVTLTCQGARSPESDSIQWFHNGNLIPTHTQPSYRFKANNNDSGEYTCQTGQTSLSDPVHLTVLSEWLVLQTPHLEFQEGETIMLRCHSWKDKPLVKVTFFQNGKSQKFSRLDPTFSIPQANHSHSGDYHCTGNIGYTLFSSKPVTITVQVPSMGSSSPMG

FcγRIIb [3] = biological target: T5, FcγRIIb (human, UniProt P31994 43-217); test: SPR, relative to GpH7-A5/GpH7-B3/GpL16-k0
T5 construct: extracellular domain; also called FcgRIIb; 2b; not shown: His tag at the C terminus
T5 sequence (looked up): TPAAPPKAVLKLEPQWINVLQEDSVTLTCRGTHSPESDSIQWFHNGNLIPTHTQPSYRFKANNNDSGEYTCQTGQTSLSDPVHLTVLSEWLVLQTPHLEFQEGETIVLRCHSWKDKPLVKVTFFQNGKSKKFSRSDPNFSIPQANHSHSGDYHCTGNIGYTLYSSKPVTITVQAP

B2: GpH7-A5/GpH7-B3 variant Y300_10E/GpL16-k0 (antibody, human IgG1, kappa)
heavy 1: not shown
heavy 2: not shown
light: DIVMTQSPLSLPVTPGEPASISCQASESLVHSNRNTYLHWYLQKPGQSPQLLIYKVSNRFSGVPDRFSGSGSGTDFTLKISRVEAEDVGVYYCSQNTHVPPTFGQGTKVEIERTVAAPSVFIFPPSDEQLKSGTASVVCLLNNFYPREAKVQWKVDNALQSGNSQESVTEQDSKDSTYSLSSTLTLSKADYEKHKVYACEVTHQGLSSPVTKSFNRGEC
notes: Heterodimerized antibody, alteration in one H chain only; also called He Ab Y300E
He/Con_2b (FcγRIIb [2]): 134 % of control
He/Con_2aH (FcγRIIa H): 97.2 % of control

B3: GpH7-B3 variant G236_10E/GpL16-k0 (antibody, human IgG1, kappa)
heavy: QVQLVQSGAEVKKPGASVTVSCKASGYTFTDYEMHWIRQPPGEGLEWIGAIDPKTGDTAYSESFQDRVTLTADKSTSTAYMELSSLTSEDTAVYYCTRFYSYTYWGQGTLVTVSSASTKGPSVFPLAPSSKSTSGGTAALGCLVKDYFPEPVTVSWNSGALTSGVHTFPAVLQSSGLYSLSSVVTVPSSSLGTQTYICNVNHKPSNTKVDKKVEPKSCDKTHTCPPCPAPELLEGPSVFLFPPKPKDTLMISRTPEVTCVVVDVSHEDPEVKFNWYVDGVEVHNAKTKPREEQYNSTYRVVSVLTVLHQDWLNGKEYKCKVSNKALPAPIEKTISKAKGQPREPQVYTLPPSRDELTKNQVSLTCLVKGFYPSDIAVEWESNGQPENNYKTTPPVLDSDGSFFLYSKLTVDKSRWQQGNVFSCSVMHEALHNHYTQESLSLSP
light: DIVMTQSPLSLPVTPGEPASISCQASESLVHSNRNTYLHWYLQKPGQSPQLLIYKVSNRFSGVPDRFSGSGSGTDFTLKISRVEAEDVGVYYCSQNTHVPPTFGQGTKVEIERTVAAPSVFIFPPSDEQLKSGTASVVCLLNNFYPREAKVQWKVDNALQSGNSQESVTEQDSKDSTYSLSSTLTLSKADYEKHKVYACEVTHQGLSSPVTKSFNRGEC
notes: both H chains mutated; also called Ho Ab
Ho/Con_2aH [1]: 122 % of control

B5: GpH7-B3 variant G236_07I/GpL16-k0 (antibody, human IgG1, kappa)
heavy: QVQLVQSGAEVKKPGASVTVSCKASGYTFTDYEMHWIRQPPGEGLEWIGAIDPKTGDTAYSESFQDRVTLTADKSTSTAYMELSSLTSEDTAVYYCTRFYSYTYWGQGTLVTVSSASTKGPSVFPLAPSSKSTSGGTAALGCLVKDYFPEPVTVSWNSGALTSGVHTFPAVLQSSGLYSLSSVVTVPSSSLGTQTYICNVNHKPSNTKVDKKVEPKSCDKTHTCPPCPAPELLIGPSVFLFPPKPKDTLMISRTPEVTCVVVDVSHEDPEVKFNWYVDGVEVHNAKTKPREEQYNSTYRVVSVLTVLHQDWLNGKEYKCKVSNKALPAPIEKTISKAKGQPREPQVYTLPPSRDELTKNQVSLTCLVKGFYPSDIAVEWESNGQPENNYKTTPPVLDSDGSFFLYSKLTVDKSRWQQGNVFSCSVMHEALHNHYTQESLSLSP
light: DIVMTQSPLSLPVTPGEPASISCQASESLVHSNRNTYLHWYLQKPGQSPQLLIYKVSNRFSGVPDRFSGSGSGTDFTLKISRVEAEDVGVYYCSQNTHVPPTFGQGTKVEIERTVAAPSVFIFPPSDEQLKSGTASVVCLLNNFYPREAKVQWKVDNALQSGNSQESVTEQDSKDSTYSLSSTLTLSKADYEKHKVYACEVTHQGLSSPVTKSFNRGEC
notes: as for B3
Ho/Con_2aH [1]: 101 % of control

B6: GpH7-B3 variant G236_03V/GpL16-k0 (antibody, human IgG1, kappa)
heavy: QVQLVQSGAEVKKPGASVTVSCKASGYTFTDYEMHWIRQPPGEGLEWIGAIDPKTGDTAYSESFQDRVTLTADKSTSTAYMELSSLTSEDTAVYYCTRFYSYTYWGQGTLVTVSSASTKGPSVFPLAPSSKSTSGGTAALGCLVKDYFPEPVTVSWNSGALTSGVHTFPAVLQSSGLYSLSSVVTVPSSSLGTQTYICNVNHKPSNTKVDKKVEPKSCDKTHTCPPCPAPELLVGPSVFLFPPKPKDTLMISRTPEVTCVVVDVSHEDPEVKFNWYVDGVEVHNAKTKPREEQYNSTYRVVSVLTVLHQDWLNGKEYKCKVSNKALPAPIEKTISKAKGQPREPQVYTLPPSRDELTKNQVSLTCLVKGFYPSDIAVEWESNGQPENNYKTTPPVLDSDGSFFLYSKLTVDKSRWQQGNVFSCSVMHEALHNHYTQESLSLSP
light: DIVMTQSPLSLPVTPGEPASISCQASESLVHSNRNTYLHWYLQKPGQSPQLLIYKVSNRFSGVPDRFSGSGSGTDFTLKISRVEAEDVGVYYCSQNTHVPPTFGQGTKVEIERTVAAPSVFIFPPSDEQLKSGTASVVCLLNNFYPREAKVQWKVDNALQSGNSQESVTEQDSKDSTYSLSSTLTLSKADYEKHKVYACEVTHQGLSSPVTKSFNRGEC
notes: as for B3
Ho/Con_2aH [1]: 111 % of control

B9: GpH7-A5/GpH7-B3 variant Y300_19Q/GpL16-k0 (antibody, human IgG1, kappa)
heavy 1: not shown
heavy 2: not shown
light: DIVMTQSPLSLPVTPGEPASISCQASESLVHSNRNTYLHWYLQKPGQSPQLLIYKVSNRFSGVPDRFSGSGSGTDFTLKISRVEAEDVGVYYCSQNTHVPPTFGQGTKVEIERTVAAPSVFIFPPSDEQLKSGTASVVCLLNNFYPREAKVQWKVDNALQSGNSQESVTEQDSKDSTYSLSSTLTLSKADYEKHKVYACEVTHQGLSSPVTKSFNRGEC
notes: Heterodimerized anti-glypican-3 IgG1; mutation in the GpH7-B3 chain only; also called He Ab
He/Con_2aR (FcγRIIa R): 99.7 control = 100
He/Con_2b (FcγRIIb [3]): 108 control = 100

Results, then the binder that gave them:

Ho/Con_2aH [1]: 126 % of control
B1: GpH7-B3 variant H268_10E/GpL16-k0 (antibody, human IgG1, kappa)
heavy: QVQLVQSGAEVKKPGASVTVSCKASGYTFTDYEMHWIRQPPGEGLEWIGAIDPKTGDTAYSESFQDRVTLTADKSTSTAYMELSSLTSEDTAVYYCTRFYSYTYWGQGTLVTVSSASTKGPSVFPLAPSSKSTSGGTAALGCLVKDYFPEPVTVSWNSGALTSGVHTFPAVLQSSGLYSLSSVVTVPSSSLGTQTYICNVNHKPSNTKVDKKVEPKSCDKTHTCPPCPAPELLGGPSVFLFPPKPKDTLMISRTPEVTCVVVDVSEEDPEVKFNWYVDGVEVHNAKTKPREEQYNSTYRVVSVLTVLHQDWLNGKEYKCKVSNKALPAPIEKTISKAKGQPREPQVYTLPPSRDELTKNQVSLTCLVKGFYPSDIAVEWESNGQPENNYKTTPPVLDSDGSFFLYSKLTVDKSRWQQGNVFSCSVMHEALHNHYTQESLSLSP
light: DIVMTQSPLSLPVTPGEPASISCQASESLVHSNRNTYLHWYLQKPGQSPQLLIYKVSNRFSGVPDRFSGSGSGTDFTLKISRVEAEDVGVYYCSQNTHVPPTFGQGTKVEIERTVAAPSVFIFPPSDEQLKSGTASVVCLLNNFYPREAKVQWKVDNALQSGNSQESVTEQDSKDSTYSLSSTLTLSKADYEKHKVYACEVTHQGLSSPVTKSFNRGEC
notes: as for B3

He/Con_2aR (FcγRIIa R): 89.3 control = 100
He/Con_2b (FcγRIIb [3]): 105 control = 100
B4: GpH7-A5/GpH7-B3 variant L328_19Q/GpL16-k0 (antibody, human IgG1, kappa)
heavy 1: not shown
heavy 2: not shown
light: DIVMTQSPLSLPVTPGEPASISCQASESLVHSNRNTYLHWYLQKPGQSPQLLIYKVSNRFSGVPDRFSGSGSGTDFTLKISRVEAEDVGVYYCSQNTHVPPTFGQGTKVEIERTVAAPSVFIFPPSDEQLKSGTASVVCLLNNFYPREAKVQWKVDNALQSGNSQESVTEQDSKDSTYSLSSTLTLSKADYEKHKVYACEVTHQGLSSPVTKSFNRGEC
notes: as for B9

He/Con_2b (FcγRIIb [2]): 108 % of control
He/Con_2aH (FcγRIIa H): 96.1 % of control
B7: GpH7-A5/GpH7-B3 variant Y300_19Q/GpL16-k0 (antibody, human IgG1, kappa)
heavy 1: not shown
heavy 2: not shown
light: DIVMTQSPLSLPVTPGEPASISCQASESLVHSNRNTYLHWYLQKPGQSPQLLIYKVSNRFSGVPDRFSGSGSGTDFTLKISRVEAEDVGVYYCSQNTHVPPTFGQGTKVEIERTVAAPSVFIFPPSDEQLKSGTASVVCLLNNFYPREAKVQWKVDNALQSGNSQESVTEQDSKDSTYSLSSTLTLSKADYEKHKVYACEVTHQGLSSPVTKSFNRGEC
notes: Heterodimerized antibody, alteration in one H chain only; also called He Ab Y300Q

Ho/Con_2aH [1]: 114 % of control
B8: GpH7-B3 variant H268_13S/GpL16-k0 (antibody, human IgG1, kappa)
heavy: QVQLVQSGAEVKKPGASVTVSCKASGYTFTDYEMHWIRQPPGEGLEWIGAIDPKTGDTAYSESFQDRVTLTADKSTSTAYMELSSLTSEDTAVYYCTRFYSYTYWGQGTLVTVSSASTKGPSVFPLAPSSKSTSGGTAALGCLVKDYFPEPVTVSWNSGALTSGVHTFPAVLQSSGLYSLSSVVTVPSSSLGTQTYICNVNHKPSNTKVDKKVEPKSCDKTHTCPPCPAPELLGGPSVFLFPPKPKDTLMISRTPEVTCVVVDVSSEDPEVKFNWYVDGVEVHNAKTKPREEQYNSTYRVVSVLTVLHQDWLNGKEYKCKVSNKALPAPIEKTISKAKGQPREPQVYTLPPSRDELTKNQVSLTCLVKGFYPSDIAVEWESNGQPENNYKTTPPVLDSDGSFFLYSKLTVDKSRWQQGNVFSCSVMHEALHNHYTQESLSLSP
light: DIVMTQSPLSLPVTPGEPASISCQASESLVHSNRNTYLHWYLQKPGQSPQLLIYKVSNRFSGVPDRFSGSGSGTDFTLKISRVEAEDVGVYYCSQNTHVPPTFGQGTKVEIERTVAAPSVFIFPPSDEQLKSGTASVVCLLNNFYPREAKVQWKVDNALQSGNSQESVTEQDSKDSTYSLSSTLTLSKADYEKHKVYACEVTHQGLSSPVTKSFNRGEC
notes: as for B3
